Earlier results as cited in paper PMC3006222.

Target: Heat-labile enterotoxin B subunit (LTB) (UniProt P0CK94)
Test: not stated in this article (acid-induced pentamer disassembly, earlier work)
Details: pH 1.9

Chain of UniProt P0CK94 (P0CK94 whole entry): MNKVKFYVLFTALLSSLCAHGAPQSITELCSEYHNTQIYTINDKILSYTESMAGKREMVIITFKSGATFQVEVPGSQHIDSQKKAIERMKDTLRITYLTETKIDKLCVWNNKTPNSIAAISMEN

In the case of Heat-labile enterotoxin B subunit (LTB), the threshold pH for acid disassembly of the pentamer is given as 1.9 pH.
